Numbered stars: 1 amine (or outer) side, 2 acyl side, 3 side chain; on linkers, the order of the positions; unused ones are H or OH. Square brackets hold non-standard residues; d marks the D form. Side chains are listed from the residue outwards. Ends that are not written are not given here. * marks the point of attachment. C20 diacid = O=C(O)CCCCCCCCCCCCCCCCCCC(=O)*; C18 diacid = O=C(O)CCCCCCCCCCCCCCCCC(=O)*; αMePhe(2-F) = C[C@](N)(Cc1ccccc1F)C(=O)O; γGlu = O=C(O)[C@H](CCC(=O)[*:2])N[*:1]; αMeL = CC(C)C[C@](C)(N)C(=O)O; AEEA = NCCOCCOCC(=O)O; Aib = CC(C)(N)C(=O)O
Biological target: T1, human gastric inhibitory peptide receptor (hGIPR) (Homo sapiens, UniProt P48546)
T1 construct: expressed in transfected cells; host or cells: HEK293
T1 sequence (P48546 22-466): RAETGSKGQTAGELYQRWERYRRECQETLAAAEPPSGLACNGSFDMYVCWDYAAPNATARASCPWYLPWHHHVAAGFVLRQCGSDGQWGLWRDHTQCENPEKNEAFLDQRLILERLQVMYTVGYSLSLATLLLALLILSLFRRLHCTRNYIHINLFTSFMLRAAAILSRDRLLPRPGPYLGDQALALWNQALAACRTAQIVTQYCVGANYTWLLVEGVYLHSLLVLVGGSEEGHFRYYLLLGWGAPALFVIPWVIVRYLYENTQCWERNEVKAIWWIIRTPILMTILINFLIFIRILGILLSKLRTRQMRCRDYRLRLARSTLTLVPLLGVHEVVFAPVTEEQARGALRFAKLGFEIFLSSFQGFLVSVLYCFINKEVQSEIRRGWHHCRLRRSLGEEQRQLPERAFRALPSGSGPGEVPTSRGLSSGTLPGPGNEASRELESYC
Test: cAMP pharmacological functional assay in presence of 0.1% casein, hGIPR
Type: cell-based
Conditions: ratio of hGIPR to hGLP1R cAMP EC50 ratios

Substance	[hGIPR/hGLP1R] EC50 Ratio
Y-Aib-EGTFTSDYSILLDKIAQ-Aib-AFIK((2-[2-(2-Amino-ethoxy)-ethoxy]-acetyl)2-(γGlu)-CO—(CH2)18—CO2H)YLIEGGPSSGAPPPS-NH2 (Y[Aib]EGTFTSDYSILLDKIAQ[Aib]AFIK([AEEA-AEEA-γGlu-C20 diacid])YLIEGGPSSGAPPPS-NH2; N-terminus assumed; SMILES CC[C@H](C)[C@H](NC(=O)[C@H](CCCCN)NC(=O)[C@H](CC(=O)O)NC(=O)[C@H](CC(C)C)NC(=O)[C@H](CC(C)C)NC(=O)[C@@H](NC(=O)[C@H](CO)NC(=O)[C@H](Cc1ccc(O)cc1)NC(=O)[C@H](CC(=O)O)NC(=O)[C@H](CO)NC(=O)[C@@H](NC(=O)[C@H](Cc1ccccc1)NC(=O)[C@@H](NC(=O)CNC(=O)[C@H](CCC(=O)O)NC(=O)C(C)(C)NC(=O)[C@@H](N)Cc1ccc(O)cc1)[C@@H](C)O)[C@@H](C)O)[C@@H](C)CC)C(=O)N[C@@H](C)C(=O)N[C@@H](CCC(N)=O)C(=O)NC(C)(C)C(=O)N[C@@H](C)C(=O)N[C@@H](Cc1ccccc1)C(=O)N[C@H](C(=O)N[C@@H](CCCCNC(=O)COCCOCCNC(=O)COCCOCCNC(=O)CC[C@H](NC(=O)CCCCCCCCCCCCCCCCCCC(=O)O)C(=O)O)C(=O)N[C@@H](Cc1ccc(O)cc1)C(=O)N[C@@H](CC(C)C)C(=O)N[C@H](C(=O)N[C@@H](CCC(=O)O)C(=O)NCC(=O)NCC(=O)N1CCC[C@H]1C(=O)N[C@@H](CO)C(=O)N[C@@H](CO)C(=O)NCC(=O)N[C@@H](C)C(=O)N1CCC[C@H]1C(=O)N1CCC[C@H]1C(=O)N1CCC[C@H]1C(=O)N[C@@H](CO)C(N)=O)[C@@H](C)CC)[C@@H](C)CC) [Peptide 34]	10.03
Y-Aib-EGT-αMeF(2F)-TSDYSILLD-Orn-K((2-[2-(2-Amino-ethoxy)-ethoxy]-acetyl)2-(γGlu)-CO—(CH2)16—CO2H)AQ-Aib-EFI-(D-Glu)-YLIEGGPSSGAPPPS-NH2 (YXEGTXTSDYSILLDXKAQXEFIXYLIEGGPSSGAPPPS; Aib, Orn, αMeF(2F), lipidated Lys, D-Glu, amide; (2)..(2) Xaa at position 2 is Aib; (6)..(6) Xaa at position 6 is alpha-methyl-Phe(2F); (16)..(16) Xaa at position 16 is Orn; MOD_RES (17)..(17) Lys at position 17 is chemically modified by conjugation of the epsilon-amino group of the Lys side chain with (2-[2-(2-amino-ethoxy)-ethoxy]-acetyl)2-(gamma-Glu)-CO-(CH2)16- CO2H; (20)..(20) Xaa at position 20 is Aib; (24)..(24) Xaa at position 24 is D-Gl) [Peptide 248]	6.35
Y-Aib-EGT-αMeF-TSDLSILLDKK((2-[2-(2-Amino-ethoxy)-ethoxy]-acetyl)2-(γGlu)-CO—(CH2)18—CO2H)AQ-Aib-AFIEYLIEGGPSSGAPPPS-NH2 (YXEGTXTSDLSILLDKKAQXAFIEYLIEGGPSSGAPPPS; Aib, αMeF; acylated lysine C20 diacid; amide; (2)..(2) Xaa at position 2 is Aib; (6)..(6) Xaa at position 6 is alpha-methyl-Phe; MOD_RES (17)..(17) Lys at position 17 is chemically modified by conjugation of the epsilon-amino group of the Lys side chain with (2-[2-(2-amino-ethoxy)-ethoxy]-acetyl)2-(gamma-Glu)-CO-(CH2)18- CO2H; (20)..(20) Xaa at position 20 is Aib; MOD_RES (39)..(39) Ser at position 39 is amidated) [Peptide 129]	3.46
Y-Aib-EGT-αMeF(2F)-TSD-4Pal-SI-αMeL-LD-Orn-K((2-[2-(2-Amino-ethoxy)-ethoxy]-acetyl)2-(γGlu)-CO—(CH2)16—CO2H)AQ-Aib-EFI-(D-Glu)-αMeY-LIEGGPSSG-NH2 (YXEGTXTSDXSIXLDXKAQXEFIXXLIEGGPSSG; Aib, αMeF(2F), 4Pal, αMeL, Orn, αMeY, D-Glu; C18 diacid lipidation; amide; (2)..(2) Xaa at position 2 is Aib; (6)..(6) Xaa at position 6 is alpha-methyl-Phe(2F); (10)..(10) Xaa at position 10 is 4Pal; (13)..(13) Xaa at position 13 is alpha-methyl-Leu; (16)..(16) Xaa at position 16 is Orn; MOD_RES (17)..(17) Lys at position 17 is chemically modified by conjugation of the epsilon-amino group of the Lys side chain with (2-[2-(2-amino-ethoxy)-ethoxy]-acetyl)2-(gamma-Glu)-CO-) [Peptide 264]	2.63
Y-Aib-EGT-αMeF(2F)-TSDHSI-αMeL-LDEK((2-[2-(2-Amino-ethoxy)-ethoxy]-acetyl)2-(γGlu)-CO—(CH2)16—CO2H)AQ-Aib-HFI-(D-Glu)-YLIEGGPSSG-NH2 (Y[Aib]EGT[αMePhe(2-F)]TSDHSI[αMeL]LDEK([AEEA-AEEA-γGlu-C18 diacid])AQ[Aib]HFI[dE]YLIEGGPSSG-NH2; N-terminus assumed; SMILES CC[C@H](C)[C@H](NC(=O)[C@H](CC(C)C)NC(=O)[C@H](Cc1ccc(O)cc1)NC(=O)[C@@H](CCC(=O)O)NC(=O)[C@@H](NC(=O)[C@H](Cc1ccccc1)NC(=O)[C@H](Cc1c[nH]cn1)NC(=O)C(C)(C)NC(=O)[C@H](CCC(N)=O)NC(=O)[C@H](C)NC(=O)[C@H](CCCCNC(=O)COCCOCCNC(=O)COCCOCCNC(=O)CC[C@H](NC(=O)CCCCCCCCCCCCCCCCC(=O)O)C(=O)O)NC(=O)[C@H](CCC(=O)O)NC(=O)[C@H](CC(=O)O)NC(=O)[C@H](CC(C)C)NC(=O)[C@](C)(CC(C)C)NC(=O)[C@@H](NC(=O)[C@H](CO)NC(=O)[C@H](Cc1c[nH]cn1)NC(=O)[C@H](CC(=O)O)NC(=O)[C@H](CO)NC(=O)[C@@H](NC(=O)[C@](C)(Cc1ccccc1F)NC(=O)[C@@H](NC(=O)CNC(=O)[C@H](CCC(=O)O)NC(=O)C(C)(C)NC(=O)[C@@H](N)Cc1ccc(O)cc1)[C@@H](C)O)[C@@H](C)O)[C@@H](C)CC)[C@@H](C)CC)C(=O)N[C@@H](CCC(=O)O)C(=O)NCC(=O)NCC(=O)N1CCC[C@H]1C(=O)N[C@@H](CO)C(=O)N[C@@H](CO)C(=O)NCC(N)=O) [Peptide 179]	3.40
Y-Aib-EGT-αMeF(2F)-TSDYSI-αMeL-LD-Orn-K((2-[2-(2-Amino-ethoxy)-ethoxy]-acetyl)2-(γGlu)-CO—(CH2)16—CO2H)AQ-Aib-EFI (D-Glu)-αMeY-LIEGGPSSGAPPPS-NH2 (YXEGTXTSDYSIXLDXKAQXEFIXXLIEGGPSSGAPPPS; Aib, Orn, αMe residues, lipidated Lys, D-Glu, amide; (2)..(2) Xaa at position 2 is Aib; (6)..(6) Xaa at position 6 is alpha-methyl-Phe(2F); (13)..(13) Xaa at position 13 is alpha-methyl-Leu; (16)..(16) Xaa at position 16 is Orn; MOD_RES (17)..(17) Lys at position 17 is chemically modified by conjugation of the epsilon-amino group of the Lys side chain with (2-[2-(2-amino-ethoxy)-ethoxy]-acetyl)2-(gamma-Glu)-CO-(CH2)16- CO2H; (20)..(20) Xaa at positi) [Peptide 236]	4.10
Y-Aib-EGTFTSDY-(D-Ser)-ILLDKK((2-[2-(2-Amino-ethoxy)-ethoxy]-acetyl)2-(γGlu)-CO—(CH2)18—CO2H)AQ-Aib-AFIEYLIEGGPSSGAPPPS-NH2 (YXEGTFTSDYXILLDKKAQXAFIEYLIEGGPSSGAPPPS; Aib, D-Ser, lipidated Lys, C-terminal amide; (2)..(2) Xaa at position 2 is Aib; (11)..(11) Xaa at position 11 is D-Ser; MOD_RES (17)..(17) Lys at position 17 is chemically modified by conjugation of the epsilon-amino group of the Lys side chain with (2-[2-(2-amino-ethoxy)-ethoxy]-acetyl)2-(gamma-Glu)-CO-(CH2)18- CO2H; (20)..(20) Xaa at position 20 is Aib; MOD_RES (39)..(39) Ser at position 39 is amidated) [Peptide 81]	5.92

Reference: patent US12295987B2, “Method of using a GIP/GLP1 co-agonist for diabetes” (Eli Lilly and Company, priority 2018, dated 2025)
